Columns and labels:
interleukin 6 (IL-6) [1] = target: interleukin 6 (IL-6) (UniProt P05231); assay: IL-6 binding ELISA; 5±3°C, 9 months
interleukin 6 (IL-6) [2] = target: interleukin 6 (IL-6) (UniProt P05231); assay: IL-6 binding ELISA; 40±2°C, 1 month
interleukin 6 (IL-6) [3] = target: interleukin 6 (IL-6) (UniProt P05231); assay: IL-6 binding ELISA; 40±2°C, 0 months
interleukin 6 (IL-6) [4] = target: interleukin 6 (IL-6) (UniProt P05231); assay: IL-6 binding ELISA; 5±3°C, 12 months
interleukin 6 (IL-6) [5] = target: interleukin 6 (IL-6) (UniProt P05231); assay: IL-6 binding ELISA; 40±2°C, 3 months
interleukin 6 (IL-6) [6] = target: interleukin 6 (IL-6) (UniProt P05231); assay: IL-6 binding ELISA; 25±2°C, 6 months
interleukin 6 (IL-6) [7] = target: interleukin 6 (IL-6) (UniProt P05231); assay: IL-6 binding ELISA; 25±2°C, 1 month
interleukin 6 (IL-6) [8] = target: interleukin 6 (IL-6) (UniProt P05231); assay: IL-6 binding ELISA; 25±2°C, 3 months
interleukin 6 (IL-6) [9] = target: interleukin 6 (IL-6) (UniProt P05231); assay: IL-6 binding ELISA, relative to a Phase I DS lot; 20 mg/mL formulation without methionine, T0 (frozen aliquot)
interleukin 6 (IL-6) [10] = target: interleukin 6 (IL-6) (UniProt P05231); assay: IL-6 binding ELISA, relative to a Phase I DS lot; 120 mg/mL formulation without methionine, T0 (frozen aliquot)
interleukin 6 (IL-6) [11] = target: interleukin 6 (IL-6) (UniProt P05231); assay: IL-6 binding ELISA; 40±2°C, 3 months; remark: listed apart in the source
interleukin 6 (IL-6) [12] = target: interleukin 6 (IL-6) (UniProt P05231); assay: IL-6 binding ELISA; 5±3°C, 12 months; remark: listed apart in the source
interleukin 6 (IL-6) [13] = target: interleukin 6 (IL-6) (UniProt P05231); assay: IL-6 binding ELISA; 40±2°C, 0 months; remark: listed apart in the source
interleukin 6 (IL-6) [14] = target: interleukin 6 (IL-6) (UniProt P05231); assay: IL-6 binding ELISA; 25±2°C, 12 months
interleukin 6 (IL-6) [15] = target: interleukin 6 (IL-6) (UniProt P05231); assay: IL-6 binding ELISA, relative to a Phase I DS lot; 20 mg/mL formulation without methionine, 12 months at 2 to 8°C
interleukin 6 (IL-6) [16] = target: interleukin 6 (IL-6) (UniProt P05231); assay: IL-6 binding ELISA; 40±2°C, 3 months; remark: listed apart in the source
interleukin 6 (IL-6) [17] = target: interleukin 6 (IL-6) (UniProt P05231); assay: IL-6 binding ELISA; 5±3°C, 0 months
interleukin 6 (IL-6) [18] = target: interleukin 6 (IL-6) (UniProt P05231); assay: IL-6 binding ELISA; 40±2°C, 1 month; remark: listed apart in the source
interleukin 6 (IL-6) [19] = target: interleukin 6 (IL-6) (UniProt P05231); assay: IL-6 binding ELISA; 5±3°C, 0 months; remark: listed apart in the source
interleukin 6 (IL-6) [20] = target: interleukin 6 (IL-6) (UniProt P05231); assay: IL-6 binding ELISA; 25±2°C, 0 months
interleukin 6 (IL-6) [21] = target: interleukin 6 (IL-6) (UniProt P05231); assay: IL-6 binding ELISA; 40±2°C, 0 months; remark: listed apart in the source
interleukin 6 (IL-6) [22] = target: interleukin 6 (IL-6) (UniProt P05231); assay: IL-6 binding ELISA; 40±2°C, 1 month; remark: listed apart in the source
interleukin 6 (IL-6) [23] = target: interleukin 6 (IL-6) (UniProt P05231); assay: IL-6 binding ELISA; 5±3°C, 3 months
interleukin 6 (IL-6) [24] = target: interleukin 6 (IL-6) (UniProt P05231); assay: IL-6 binding ELISA; 40±2°C, 0 months; remark: listed apart in the source
interleukin 6 (IL-6) [25] = target: interleukin 6 (IL-6) (UniProt P05231); assay: IL-6 binding ELISA; 5±3°C, 0 months; remark: listed apart in the source
interleukin 6 (IL-6) [26] = target: interleukin 6 (IL-6) (UniProt P05231); assay: IL-6 binding ELISA; 5±3°C, 1 month
interleukin 6 (IL-6) [27] = target: interleukin 6 (IL-6) (UniProt P05231); assay: IL-6 binding ELISA; 25±2°C, 6 months; remark: listed apart in the source
interleukin 6 (IL-6) [28] = target: interleukin 6 (IL-6) (UniProt P05231); assay: IL-6 binding ELISA; 25±2°C, 3 months; remark: listed apart in the source
interleukin 6 (IL-6) [29] = target: interleukin 6 (IL-6) (UniProt P05231); assay: IL-6 binding ELISA; 25±2°C, 6 months; remark: listed apart in the source
interleukin 6 (IL-6) [30] = target: interleukin 6 (IL-6) (UniProt P05231); assay: IL-6 binding ELISA; 25±2°C, 3 months; remark: listed apart in the source
interleukin 6 (IL-6) [31] = target: interleukin 6 (IL-6) (UniProt P05231); assay: IL-6 binding ELISA; 5±3°C, 6 months
interleukin 6 (IL-6) [32] = target: interleukin 6 (IL-6) (UniProt P05231); assay: IL-6 binding ELISA; 40±2°C, 1 month; remark: listed apart in the source

Chain of UniProt P05231 (P05231 30-212 limits assumed): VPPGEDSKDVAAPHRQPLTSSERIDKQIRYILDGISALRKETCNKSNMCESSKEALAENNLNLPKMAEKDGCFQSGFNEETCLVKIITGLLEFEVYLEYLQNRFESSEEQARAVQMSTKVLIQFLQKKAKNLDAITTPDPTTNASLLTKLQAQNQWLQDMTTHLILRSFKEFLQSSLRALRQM

- IL-6 binding ELISA (% of Reference Standard) (interleukin 6 (IL-6) [1]): 85%
- IL-6 binding ELISA (% of Reference Standard) (interleukin 6 (IL-6) [2]): 85%
- IL-6 binding ELISA (% of Reference Standard) (interleukin 6 (IL-6) [3]): 91%
- IL-6 binding ELISA (% of Reference Standard) (interleukin 6 (IL-6) [4]): 98%
- IL-6 binding ELISA (% of Reference Standard) (interleukin 6 (IL-6) [5]): 94%
- IL-6 binding ELISA (% of Reference Standard) (interleukin 6 (IL-6) [6]): 82%
- IL-6 binding ELISA (% of Reference Standard) (interleukin 6 (IL-6) [7]): 93%
- IL-6 binding ELISA (% of Reference Standard) (interleukin 6 (IL-6) [8]): 91%
- IL-6 binding ELISA (% of assay control) (interleukin 6 (IL-6) [9]): 61%
- IL-6 binding ELISA (% of assay control) (interleukin 6 (IL-6) [10]): 91%
- IL-6 binding ELISA (% of Reference Standard) (interleukin 6 (IL-6) [11]): 78%
- IL-6 binding ELISA (% of Reference Standard) (interleukin 6 (IL-6) [12]): 95%
- IL-6 binding ELISA (% of Reference Standard) (interleukin 6 (IL-6) [13]): 97%
- IL-6 binding ELISA (% of Reference Standard) (interleukin 6 (IL-6) [14]): 95%
- IL-6 binding ELISA (% of assay control) (interleukin 6 (IL-6) [15]): 84%
- IL-6 binding ELISA (% of Reference Standard) (interleukin 6 (IL-6) [16]): 97%
- IL-6 binding ELISA (% of Reference Standard) (interleukin 6 (IL-6) [17]): 91%
- IL-6 binding ELISA (% of Reference Standard) (interleukin 6 (IL-6) [18]): 92%
- IL-6 binding ELISA (% of Reference Standard) (interleukin 6 (IL-6) [19]): 97%
- IL-6 binding ELISA (% of Reference Standard) (interleukin 6 (IL-6) [20]): 96%
- IL-6 binding ELISA (% of Reference Standard) (interleukin 6 (IL-6) [21]): 103%
- IL-6 binding ELISA (% of Reference Standard) (interleukin 6 (IL-6) [22]): 89%
- IL-6 binding ELISA (% of Reference Standard) (interleukin 6 (IL-6) [23]): 96%
- IL-6 binding ELISA (% of Reference Standard) (interleukin 6 (IL-6) [24]): 96%
- IL-6 binding ELISA (% of Reference Standard) (interleukin 6 (IL-6) [25]): 103%
- IL-6 binding ELISA (% of Reference Standard) (interleukin 6 (IL-6) [26]): 94%
- IL-6 binding ELISA (% of Reference Standard) (interleukin 6 (IL-6) [27]): 88%
- IL-6 binding ELISA (% of Reference Standard) (interleukin 6 (IL-6) [28]): 90%
- IL-6 binding ELISA (% of Reference Standard) (interleukin 6 (IL-6) [29]): 81%
- IL-6 binding ELISA (% of Reference Standard) (interleukin 6 (IL-6) [30]): 84%
- IL-6 binding ELISA (% of Reference Standard) (interleukin 6 (IL-6) [31]): 83%
- IL-6 binding ELISA (% of Reference Standard) (interleukin 6 (IL-6) [32]): 95%
B1: COR-001 antibody (antibody, human IgG1, kappa, V domains shown)
VH: EVQLVESGGGLVQPGGSLRLSCAASGFTISSNYMIWVRQAPGKGLEWVSDLYYYAGDTYYADSVKGRFTMSRDISKNTVYLQMNSLRAEDTAVYYCARWADDHPPWIDLWGRGTLVTVSS
VL: DIQMTQSPSTLSASVGDRVTITCRASQGISSWLAWYQQKPGKAPKVLIYKASTLESGVPSRFSGSGSGTEFTLTISSLQPDDFATYYCQQSWLGGSFGQGTKLEIKR

Reference: patent publication EP4631523A2
